# Patent US20230287088A1 (BIONTECH, published 2023)
# Substitutions are numbered along the chain they refer to. Like-named read-outs stand apart in the source and are kept apart here.
# B1: P043.A.00023.E05 (antibody, V domains shown)
# VH: QSLEESGGRLVTPGTPLTLTCTVSGFSLSSYAMSWVRQAPGKGLEWIGIISSSGSTYYASWAKGRFTISKTSTTVDLKITSPTTEDTATYFCARDASSRGYYYYYGMDPWGPGTLVTVSS
# VL: AIQMTQSPSSLAASVGDTVTITCKASEDIGYGLNWYQQKLGIAPKLLIYGANTLESGVPSRFSGSGSETDYTLTISSVQAEDAGIYYCQQGYSTPLTFGAGTKVEIK
# notes: also called 443; protein sample ID 443
# B2: P043.A.00097.B02 (antibody, V domains shown)
# VH: QELVESGGGLVQAGESLKLSCKASGIDFSSYGISWVRQAPGKGLEWIAYIYPGFGITNYANSVKGRFTISSDNAQNTVFLQMTSLTASDTATYFCTRAYASSSGYYIHYFNLWGPGTLVTVSS
# VL: B1 VL with G91A
# B3: P043.A.00017.E04 (antibody, V domains shown)
# VH: QSVEESGGRLVTPGTPLTLTCTVSGFSLNNYAMNWVRQAPGKGLEWIGIISSSGNTYYANWAKGRFTISKTSTTVDLKITSPTTEDTATYFCARDSYPGYSPYYGMDPWGPGTLVTVSS
# VL: B1 VL with G30A, A43T, D70H, S93N, L96P
# B4: P043.A.00092.C12 (antibody, V domains shown)
# VH: QEELKETGGGLVQPGGSLTLSCKASGFDFSSYYMSWVRQAPGKGLEWIGVIYASKGSTDYASWVNGRFTISSDNAQNTVDLQMNSLTAADTATYYCARSKRFYTYGYAGYAYAHYYYGMDLWGPGTLVTVSS
# VL: B1 VL with N52D
# notes: also called 472; protein sample ID 472
# B5: P043.A.00017.E07 (protein sample ID 449) (antibody, V domains shown)
# VH: QSVEESGGRLVTPGTPLTLTCTVSGFSLSSYAMSWVRQAPGKGLEWIGIISSSGSTYYASWAKGRFTISKTSTTVDLKITSPTTEDTATYFCARAMYPGYSTGVYNIWGPGTLVTVSL
# VL: B1 VL with G32E, S93N, L96N
# B6: P043.A.00023.A08 (protein sample ID 446) (antibody, V domains shown)
# VH: QSVEESGGRLVTPGTPLTLTCTVSGFSLSKYAMSWVRQAPGKGLEWIGIISSGGSTYYASWAKGRFTISKTSSTTVDLKITSPTTEDTATYFCARAGYPGYSPHYFNIWGPGTLVTVSL
# VL: B1 VL with G32E, S63T, L96P
# B7: P043.A.00024.C11 (protein sample ID 451) (antibody, V domains shown)
# VH: B1 VH with L3V, S55T, R65P, D95G, A96G, S97A, S98G, R99Y, Y102A, Y103H
# VL: B1 VL
# B8: P043.A.00018.C02 (protein sample ID 450) (antibody, V domains shown)
# VH: B1 VH with L3V, S51N, S53G, G54R, S97T, R99I, Y103R
# VL: B1 VL
# B9: P043.A.00032.C04 (antibody, V domains shown)
# VH: QSLEESGGRLVTPGTPLTLTCTASGFSLSSYWMSWVRQAPGKGLEWIGIIYVSGSTYYASWAKGRFTISKTSTTVDLKMTSLTTEDTATYFCARVDYSTGWPLFNIWGPGTLVTVSL
# VL: AQVLTQTASPVSAAVGGTVTINCQSSQSVYDNNWLGWYQQKPGQPPKLLIYGASILASGVPSRFKGSGSGTQFTLTISDLESDDAATYYCQGGCSGNTFVFGGGTEVVVK
# notes: also called 452; protein sample ID 452
# B10: 462 (bispecific antibody)
# heavy chain: QSVEESGGRLVTPGTPLTLTCTVSGFSLSSYAMSWVRQAPGKGLEWIGIISSSGTTYYASWAKGPFTISKTSTTVDLKITSPTTEDTATYFCARGGAGYGYAHYYGMDPWGPGTLVTVSSASTKGPSVFPLAPSSKSTSGGTAALGCLVKDYFPEPVTVSWNSGALTSGVHTFPAVLQSSGLYSLSSVVTVPSSSLGTQTYICNVNHKPSNTKVDKRVEPKSCDKTHTCPPCPAPEAAGGPSVFLFPPKPKDTLMISRTPEVTCVVVDVSHEDPEVKFNWYVDGVEVHNAKTKPREEQYNSTYRVVSVLTVLHQDWLNGKEYKCKVSNKALPAPIEKTISKAKGQPREPQVYTLPPSREEMTKNQVSLTCLVKGFYPSDIAVEWESNGQPENNYKTTPPVLDSDGSFFLYSKLTVDKSRWQQGNVFSCSVLHEALHSHYTQKSLSLSPGK
# light chain fused to scFv: AIQMTQSPSSLAASVGDTVTITCKASEDIGYGLNWYQQKLGIAPKLLIYGANTLESGVPSRFSGSGSETDYTLTISSVQAEDAGIYYCQQGYSTPLTFGAGTKVEIKRTVAAPSVFIFPPSDEQLKSGTASVVCLLNNFYPREAKVQWKVDNALQSGNSQESVTEQDSKDSTYSLSSTLTLSKADYEKHKVYACEVTHQGLSSPVTKSFNRGECDVPGGSGGGGSGGGGSGGGGSQMQLVQSGTEVKKPGESLKISCKGSGYGFITYWIGWVRQMPGKCLEWMGIIYPGDSETRYSPSFQGQVTISADKSINTAYLQWSSLKASDTAIYYCAGGSGISTPMDVWGQGTTVTVGGGGSGGGGSGGGGSGGGGSDIQLTQSPDSLAVSLGERATINCKSSQSVLYSSINKNYLAWYQQKPGQPPKLLIYWASTRESGVPDRFSGSGSGTDFTLTISSLQAEDVAVYYCQQYYSTPYTFGCGTKVEIK
# notes: also called LC of P043.A.00024.C11 with a C-terminal fusion of a scFv of anti-S1 antibody; HC of P043.A.00024.C11 as IgG1-LALA-LS
# B11: P043.A.00109.B12 (antibody, V domains shown)
# VH: QSLEESGGGLVKPEGSLTLTCKASGFDLNTYYYMCWVRQAPGKGLEWIACIATSDSGHTAYASWARGRFTISKTSSTTVTLQMTGLTAADTATYFCARGGRSVGDGVDLWGPGTLVTVSS
# VL: DIVMTQTPASVEAAVGGTVTIKCQASQSISSWLAWYQQKPGQPPKLLIYDASDLASGVPSRFKGSGSGTEFTLTISDLESADAATYYCQSYLYVESGSHGFGFGGGTEVVVR
# notes: also called 468; protein sample ID 468
# B12: P043.A.00036.C07 (antibody, V domains shown)
# VH: QSLEESGGDLVKPGASLTLTCTASGFSFSSSYWICWVRQAPGKGLEWIGCIYTGSGSTWYASWAKGRFTISKTSSTTVTLQMTSLTAADTATYFCARGYGSYMYDFWGPGTLVTVSS
# VL: DVVMTQTPASVEAAVGGTVTIKCQASQSISTALAWYQQKPGQPPKLLIYSASTLESGVPSRFKGSGSGTEFTLAISDLESADAATYYCQGADGSSSSFGGGTEVVVK
# notes: also called 448; protein sample ID 448
# Key:
# [1] = biological target: T1, His-tagged SARS-CoV S1-RBD (Sino Biologicals) (SARS-CoV, UniProt P59594 306-527); assay: ELISA on coated His-tagged SARS-CoV S1-RBD [D00020 Figure 8A continued]
# T1 construct: domain: S1-RBD; Bought reagent
# [2] = biological target: T2, Mouse-Fc-tagged SARS-CoV2 S1-RBD (Sino Biologicals) recombinant protein (SARS-CoV-2, UniProt P0DTC2 319-541); assay: SPR, S1-RBD-mFc captured via anti-mouse-Fc antibody, 1:1 model
# T2 construct: domain: S1-RBD
# [3] = biological target: T3, Human-Fc-tagged SARS-CoV2 S1 recombinant protein (Sino Biologicals) (SARS-CoV-2, UniProt P0DTC2 16-685)
# [4] = biological target: T2, Mouse-Fc-tagged SARS-CoV2 S1-RBD (Sino …); assay: competition ELISA: blocks S1-RBD-mFc binding to coated ACE-2 ECD
# [5] = biological target: T3, Human-Fc-tagged SARS-CoV2 S1 …; assay: ELISA on coated S1-hFc, 3 µg/ml; rabbit antibody in B-cell supernatant
# [6] = biological target: T2, Mouse-Fc-tagged SARS-CoV2 S1-RBD (Sino …); assay: ELISA on coated S1-RBD-mFc
# [7] = biological target: T3, Human-Fc-tagged SARS-CoV2 S1 …; assay: ELISA on coated S1-hFc, 0.85 µg/ml; rabbit antibody in B-cell supernatant
# [8] = biological target: T2, Mouse-Fc-tagged SARS-CoV2 S1-RBD (Sino …); assay: ELISA on coated S1-RBD-mFc; remark: listed apart in the source
# [9] = biological target: T2, Mouse-Fc-tagged SARS-CoV2 S1-RBD (Sino …)
# [10] = biological target: T2, Mouse-Fc-tagged SARS-CoV2 S1-RBD (Sino …); assay: competition ELISA: blocks S1-RBD-mFc binding to coated ACE-2 ECD; remark: listed apart in the source
Binder,binding result [1],Kd [2],koff [2],kon [2],IC50 [3],IC50 [4],EC50 [5],EC50 [6],EC50 [7],EC50 [8],IC50 [9],IC50 [10],IC90 [10]
B1,no binding (tested: 1000 ng/ml),0.268 nM,0.000263 s⁻¹,982000 M⁻¹ s⁻¹,0.0082 µg/mL,0.0349 µg/mL,0.0166 µg/mL,0.0112 µg/mL,–,–,–,–,–
B2,–,–,–,–,0.0055 µg/mL,0.0417 µg/mL,–,0.0034 µg/mL,0.0054 µg/mL,–,–,–,–
B3,no binding (tested: 1000 ng/ml),0.422 nM,0.000327 s⁻¹,445000 M⁻¹ s⁻¹,0.0093 µg/mL,0.0321 µg/mL,0.0196 µg/mL,0.0082 µg/mL,–,–,–,–,–
B4,–,–,–,–,0.0065 µg/mL,0.0299 µg/mL,–,0.0083 µg/mL,0.0068 µg/mL,–,–,–,–
B5,no binding (tested: 1000 ng/ml),0.308 nM,0.000239 s⁻¹,780000 M⁻¹ s⁻¹,0.0036 µg/mL,0.0539 µg/mL,0.0053 µg/mL,0.0088 µg/mL,–,0.0065 µg/mL,0.0508 µg/mL,–,–
B6,no binding (tested: 1000 ng/ml),0.115 nM,0.000243 s⁻¹,2.12e+06 M⁻¹ s⁻¹,0.0047 µg/mL,0.0373 µg/mL,0.0085 µg/mL,0.0081 µg/mL,–,0.007 µg/mL,–,0.028 µg/mL,18 µg/mL
B7,no binding (tested: 1000 ng/ml),0.77 nM,0.000307 s⁻¹,398000 M⁻¹ s⁻¹,0.0036 µg/mL,0.0423 µg/mL,0.0048 µg/mL,0.007 µg/mL,–,0.0064 µg/mL,–,0.0391 µg/mL,99.2 µg/mL
B8,no binding (tested: 1000 ng/ml),0.398 nM,0.000283 s⁻¹,714000 M⁻¹ s⁻¹,0.001 µg/mL,0.0433 µg/mL,0.0017 µg/mL,0.0082 µg/mL,–,0.0077 µg/mL,–,0.0286 µg/mL,61.2 µg/mL
B9,no binding (tested: 1000 ng/ml),–,–,–,0.0147 µg/mL,0.115 µg/mL,0.0265 µg/mL,0.007 µg/mL,–,–,–,–,–
B10,–,–,–,–,–,–,–,–,–,0.0119 µg/mL,–,0.0464 µg/mL,0.948 µg/mL
B11,–,–,–,–,0.0181 µg/mL,0.0216 µg/mL,–,0.0056 µg/mL,0.018 µg/mL,–,–,–,–
B12,no binding (tested: 1000 ng/ml),–,–,–,0.0141 µg/mL,0.0434 µg/mL,0.0387 µg/mL,0.007 µg/mL,–,–,–,–,–
